# Laboratory results as given in patent publication US20120094914A1 (KYUSHU UNIVERSITY NATIONAL UNIVERSITY, published 2012).
# Molecular target: T1, biotinylated HLA-G (monomer) refolded with human beta2 microglobulin and peptide … (human, biotinylated with BirA; site not stated)
# T1 construct: also called wild-type HLA-G
# Assay: SPR (BIAcore 2000), equilibrium response against LIR2 concentration, fitted binding isotherm; biotinylated HLA-G immobilised via streptavidin, BSA control cell subtracted
# Protocol: Surface plasmon resonance experiment was conducted for HLA-G and LILRB2 (LIR2), using BIAcore 2000° (BIAcore AB, St Albans, England). First, streptavidin was covalently immobilized on a laboratory sensor chip CM5 (BIAcore AB), and the biotinylated HLA-G and the negative control BSA were immobilized via the streptavidin. Then, LILRB2 (LIR2) dissolved in the running buffer HBS-EP (10 mM HEPES, pH 7.5, 150 mM sodium chloride, 3.4 mM EDTA, 0.005% Surfactant P20) was flown at 10 μL/min. The binding response at each concentration was calculated by subtracting the measured response in a control flow cell from the response in a sample flow cell. Binding constant (Kd) was obtained by Scatchard analysis, or by the nonlinear curve fitting of standard Langmuir binding isotherm, using ORIGIN 5 (Microcal Software).
binder,measurement,value
"LILRB2 (LIR2) (receptor, UniProt Q8N423 24-220, looked up, domain: ILT4D1D2; also called leukocyte Ig-like receptor B2; ILT4) GTIPKPTLWAEPDSVITQGSPVTLSCQGSLEAQEYRLYREKKSASWITRIRPELVKNGQFHIPSITWEHTGRYGCQYYSRARWSELSDPLVLVMTGAYPKPTLSAQPSPVVTSGGRVTLQCESQVAFGGFILCKEGEDEHPQCLNSQPHARGSSRAIFSVGPVSPNRRWSHRCYGYDLNSPYVWSSPSDLLELLVPG",Kd,4.1 µM
